Measurements reported in US6500670.

Molecular target: T1, human pyruvate dehydrogenase E1alpha/E1beta subunit complex, co-expressed in and purified from E. coli M15, P08559
T1 chain 1: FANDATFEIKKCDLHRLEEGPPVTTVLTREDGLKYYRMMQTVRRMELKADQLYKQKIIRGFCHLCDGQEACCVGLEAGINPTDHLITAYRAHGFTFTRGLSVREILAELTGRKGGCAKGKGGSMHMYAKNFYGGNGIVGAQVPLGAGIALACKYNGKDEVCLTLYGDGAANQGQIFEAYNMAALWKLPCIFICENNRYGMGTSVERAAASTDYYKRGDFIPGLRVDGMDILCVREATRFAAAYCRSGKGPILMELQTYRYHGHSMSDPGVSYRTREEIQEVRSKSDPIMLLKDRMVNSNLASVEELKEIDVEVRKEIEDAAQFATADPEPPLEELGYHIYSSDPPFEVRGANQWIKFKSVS
T1 chain 2: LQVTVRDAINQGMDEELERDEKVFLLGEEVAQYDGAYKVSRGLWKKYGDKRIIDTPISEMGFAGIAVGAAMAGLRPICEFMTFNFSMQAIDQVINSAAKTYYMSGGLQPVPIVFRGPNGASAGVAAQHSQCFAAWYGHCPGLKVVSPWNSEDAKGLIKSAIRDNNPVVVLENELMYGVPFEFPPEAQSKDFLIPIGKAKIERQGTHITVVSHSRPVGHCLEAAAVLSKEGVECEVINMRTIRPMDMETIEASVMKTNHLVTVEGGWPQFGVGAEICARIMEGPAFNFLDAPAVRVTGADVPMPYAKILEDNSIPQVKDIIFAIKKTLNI

B1: Arabidopsis thaliana pyruvate dehydrogenase kinase (PDHK) fusion protein, product of clone YA5 expressed in E. coli from construct pZTa5 (pTrcHisB vector) (protein)
chain: MAVKKACEMFPKSLIEDVHKWGCMKQTGVSLRYMMEFGSKPTERNLLISAQFLHKELPIRVARRAIELQTLPYGLSDKPAVLKVRDWYLESFRDMRAFPEIKDSGDEKDFTQMIKAVKVRHNNVVPMMALGVNQLKKGMNSGNLDEIHQFLDRFYLSRIGIRMLIGQHVELHNPNPPLHTVGYIHTKMSPMEVARNASEDARSICFREYGSAPEINIYGDPSFTFPYVPTHLDLMMYELVKNSLRAVQERFVDSDRVAPPIRIIVADGIEDVTIKVSDEGGGIARSGLPRIFTYLYSTARNPLEEDVDLGIADVPGTMGGYGYGLPISRLYARYFGGDLQIISMEGYGTDAYLHLSRLGDSQEPLP
in vitro phosphorylation (incorporation of 32P from gamma-32P-ATP into the E1 subunit; SDS-PAGE and autoradiography; 2, 5, 10, 15, 20 min): time-dependent (incubation times of 2, 5, 10, 15, or 20 min) in vitro phosphorylation of the E1α/E1β complex substrate by the action of the plant PDHK (clone YA5) fusion protein
